The values below come from patent US20220333124.

Series [1] relates to T1, Pb2Cpf1 (Prevotella bryantii B14).
T1 sequence: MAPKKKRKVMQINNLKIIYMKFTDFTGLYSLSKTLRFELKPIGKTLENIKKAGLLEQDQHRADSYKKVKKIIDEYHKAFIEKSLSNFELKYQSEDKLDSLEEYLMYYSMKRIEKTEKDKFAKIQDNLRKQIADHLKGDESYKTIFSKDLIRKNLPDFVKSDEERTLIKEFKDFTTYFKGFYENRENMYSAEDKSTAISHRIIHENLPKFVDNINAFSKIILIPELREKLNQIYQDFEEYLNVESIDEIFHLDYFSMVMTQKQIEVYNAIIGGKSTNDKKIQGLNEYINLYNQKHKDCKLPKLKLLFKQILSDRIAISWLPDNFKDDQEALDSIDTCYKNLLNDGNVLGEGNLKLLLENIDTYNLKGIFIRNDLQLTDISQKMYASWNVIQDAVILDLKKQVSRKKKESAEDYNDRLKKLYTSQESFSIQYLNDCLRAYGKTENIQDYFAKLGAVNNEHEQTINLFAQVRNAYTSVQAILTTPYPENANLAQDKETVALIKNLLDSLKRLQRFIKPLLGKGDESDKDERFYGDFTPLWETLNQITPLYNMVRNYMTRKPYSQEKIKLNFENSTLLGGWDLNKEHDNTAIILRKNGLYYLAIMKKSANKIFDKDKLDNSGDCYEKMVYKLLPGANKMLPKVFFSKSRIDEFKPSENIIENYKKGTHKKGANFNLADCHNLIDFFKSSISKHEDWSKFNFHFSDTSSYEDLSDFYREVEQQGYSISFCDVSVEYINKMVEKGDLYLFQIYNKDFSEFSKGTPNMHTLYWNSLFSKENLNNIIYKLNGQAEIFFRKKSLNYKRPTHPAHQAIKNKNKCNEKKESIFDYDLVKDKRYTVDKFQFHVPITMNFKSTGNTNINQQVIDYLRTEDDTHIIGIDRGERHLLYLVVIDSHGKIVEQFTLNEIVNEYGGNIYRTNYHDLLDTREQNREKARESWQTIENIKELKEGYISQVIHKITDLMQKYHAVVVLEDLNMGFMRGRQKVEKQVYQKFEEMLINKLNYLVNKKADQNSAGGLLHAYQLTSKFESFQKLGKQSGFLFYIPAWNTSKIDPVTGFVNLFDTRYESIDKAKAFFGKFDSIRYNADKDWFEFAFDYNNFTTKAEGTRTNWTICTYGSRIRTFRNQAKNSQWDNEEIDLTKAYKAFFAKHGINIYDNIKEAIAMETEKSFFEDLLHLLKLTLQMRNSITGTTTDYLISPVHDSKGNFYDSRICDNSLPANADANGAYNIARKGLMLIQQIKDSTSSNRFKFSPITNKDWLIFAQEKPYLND
As to the kind of experiment: cell_activity. Particulars: pea protoplasts, NGS; PAM TTTC per claims.

Series [2] has as its system T2, Pb2Cpf1 E173R (Prevotella bryantii B14).
T2 sequence: T1 sequence with E182R
As to the kind of experiment: cell_activity. Particulars: pea protoplasts, NGS; PAM TTTC per claims.

Residue numbers refer to the chain shown, from its start.

As for “PsLOX2 guide RNA (plasmid 133806, MtU6 promoter; plasmid sequence given) ; PsLOX2 genomic target”, the activity was determined as 0.32 % editing in series [1] and 0.88 % editing in series [2].
